Consider four molecules from patent US20210206849A1 (UNIVERSITY OF CONNECTICUT, published 2021).

Experiment [1] addresses T1, mouse ICOS on transfected HEK-293 cells (mouse, UniProt Q9WVS0 21-200).
T1 construct: whole, on cells
T1 sequence (looked up): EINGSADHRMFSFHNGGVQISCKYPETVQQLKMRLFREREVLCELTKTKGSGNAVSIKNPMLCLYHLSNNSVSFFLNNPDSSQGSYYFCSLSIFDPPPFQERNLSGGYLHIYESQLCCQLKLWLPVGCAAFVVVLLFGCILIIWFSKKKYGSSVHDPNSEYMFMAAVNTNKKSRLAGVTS
The experiment in a line: flow cytometry, biotinylated mCD300c2-Ig on transfected HEK-293 cells. Here is the method: (§1) To determine whether mCD300c binds to molecules previously identified as receptors of the known B7 family members, HEK-293 cells were transfected with an expression vector containing the mouse CD28. CTLA4, PD-1, BTLA or ICOS gene. The expression of these receptors on the transfected 293 cells was confirmed by flow cytometric analysis with the antibodies against the respective receptors (FIG. 5C). The binding of mCD300c to the transfected HEK-293 cells was then analyzed.
For orientation: A flow cytometer gives signals particle by particle.

The target of experiment [2] is T2, mouse PD-1 on transfected HEK-293 cells (mouse, UniProt Q02242 25-288).
T2 construct: whole, on cells
T2 sequence (looked up): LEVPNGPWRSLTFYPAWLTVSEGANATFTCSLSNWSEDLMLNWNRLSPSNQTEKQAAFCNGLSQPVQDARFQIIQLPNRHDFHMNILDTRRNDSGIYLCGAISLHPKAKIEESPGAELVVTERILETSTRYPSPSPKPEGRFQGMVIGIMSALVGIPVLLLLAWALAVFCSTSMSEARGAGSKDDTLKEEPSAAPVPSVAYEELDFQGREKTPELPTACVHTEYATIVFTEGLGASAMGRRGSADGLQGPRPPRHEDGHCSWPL
The description is as above. Here is the method: as §1

The target of experiment [3] is T3, mouse CTLA-4 on transfected HEK-293 cells (mouse, UniProt P09793 36-223).
T3 construct: whole, on cells
The description is as above. Here is the method:
as §1

For experiment [4], the target named is T4, mouse BTLA on transfected HEK-293 cells (mouse, UniProt Q7TSA3 30-306).
T4 construct: whole, on cells
T4 sequence (looked up): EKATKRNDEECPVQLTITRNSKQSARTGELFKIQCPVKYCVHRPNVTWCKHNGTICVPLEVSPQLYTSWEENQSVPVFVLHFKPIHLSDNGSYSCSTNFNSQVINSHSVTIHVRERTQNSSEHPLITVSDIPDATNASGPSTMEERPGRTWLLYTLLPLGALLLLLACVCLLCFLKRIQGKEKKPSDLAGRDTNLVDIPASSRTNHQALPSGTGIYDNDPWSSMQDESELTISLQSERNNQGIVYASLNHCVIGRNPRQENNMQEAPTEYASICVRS
Described as above. Here is the method:
as §1

The target of experiment [5] is T5, mouse CD28 on transfected HEK-293 cells (mouse, UniProt P31041 20-218).
T5 construct: whole, on cells
T5 sequence (looked up): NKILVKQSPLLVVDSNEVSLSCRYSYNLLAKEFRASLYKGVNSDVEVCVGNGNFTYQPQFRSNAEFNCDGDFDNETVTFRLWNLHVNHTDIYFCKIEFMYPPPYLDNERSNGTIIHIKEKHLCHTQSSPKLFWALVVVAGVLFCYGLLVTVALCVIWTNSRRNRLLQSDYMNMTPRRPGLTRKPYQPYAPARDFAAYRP
The experiment is described as above. Here is the method:
as §1

For experiment [6], the target named is T6, Human CD300c-Ig fusion protein (human).
T6 construct: also called hCD300c-Ig; hCD300-Ig
T6 chain: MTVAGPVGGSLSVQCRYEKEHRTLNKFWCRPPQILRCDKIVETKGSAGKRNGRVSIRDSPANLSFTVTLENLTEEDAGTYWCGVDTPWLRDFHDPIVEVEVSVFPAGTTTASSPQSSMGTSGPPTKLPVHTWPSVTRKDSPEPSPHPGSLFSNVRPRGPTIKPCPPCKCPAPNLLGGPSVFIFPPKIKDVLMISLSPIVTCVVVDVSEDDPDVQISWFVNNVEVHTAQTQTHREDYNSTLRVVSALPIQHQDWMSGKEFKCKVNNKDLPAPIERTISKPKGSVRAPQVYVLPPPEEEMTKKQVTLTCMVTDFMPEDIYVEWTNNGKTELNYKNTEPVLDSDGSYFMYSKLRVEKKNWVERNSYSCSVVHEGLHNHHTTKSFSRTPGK
The experiment in a line: ELISA screen of hybridomas.

For experiment [7], the target named is T7, Control Ig (recombinant mouse IgG2a Fc protein) (mouse, UniProt P01863 98-330 = IgG part, limits assumed).
T7 construct: domain: Fc; Bought control protein; also called control mouse IgG2a Fc; control Ig protein
The experiment in a line: ELISA screen of hybridomas.

For experiment [8], the target named is T1, mouse ICOS on transfected HEK-293 cells. The experiment in a line: flow cytometry, biotinylated mBTN5-Ig and streptavidin-PE on transfected HEK-293 cells. The procedure:
(§2) FIG. 20. The expression pattern of the mBTN5 putative receptor. (A) Splenocytes from C57BL/6 mice were freshly harvested and analyzed for resting immune cells. For T cell activation, splenocytes were incubated with anti-CD3 (1 μg/ml) and anti-CD28 (0.5 μg/ml) antibodies for 3 days. For the activation of B cells, DCs and monocytes, splenocytes were incubated with LPS (10 μg/ml) for 3 days. The resting and active immune cells were stained with anti-CD4, CD8, B220, CD11c, or CD11b antibodies, and biotinylated mBTN5-Ig or control Ig, followed by streptavidin-PE. Representative flow cytometric profiles showing the binding of mBTN5-Ig or control Ig to resting and activated immune cells. (B, C) HEK-293 cells were transfected with an expression vector containing murine PD-1, CD28, BTLA, CTLA-4, or ICOS gene. The transfected cells were stained with (B) antibodies against the respective PD-1, CD28, BTLA, CTLA-4, or ICOS protein, (C) biotinylated mBTN5-Ig or control Ig, followed by streptavidin-PE. Representative flow cytometric profiles showing the binding of (B) the antibodies or (C) mBTN5-Ig to the transfected cells. Representative of 3 independent experiments.

The target in experiment [9] is T2, mouse PD-1 on transfected HEK-293 cells. Described as above. The procedure:
as §2

The target in experiment [10] is T3, mouse CTLA-4 on transfected HEK-293 …. Described as above. Here is the method: as §2
Experiment [11] addresses T4, mouse BTLA on transfected HEK-293 cells. The description is as above. Here is the method:
as §2

Experiment [12] concerns the target T5, mouse CD28 on transfected HEK-293 cells. Described as above. Here is the method:
as §2

B1: mCD300c2-Ig fusion protein (Fc fusion)
chain: CVPLHGPSTITGTVGKSLSVSCQYEEKFKTKDKFWCRGSLKVLCKDIVKTSSSEEVRNGRVTIRDHPDNLTFTVTYESLTLEDADTYMCAVDISLFDGSLGFDKYFKIELSVVPSEDPVTGSSLESGRDILESPTSSVGHTHPSVTTDDTIPTPCPQPRSLRSSLYFRVLVS
modifications: biotinylated with sulfo-NHS-LC-Biotin for flow cytometry (sites not given)
notes: Made in HEK293F cells; also called mCD300c-Ig; not shown: constant region of mouse IgG2a from the pCMV6-AC-FC-S expression vector (ORIGENE)
Turning to B1, the binding result in experiment [1], in experiment [2], in experiment [3], in [4] and in experiment [5] was “no binding” in each case.

B2: anti-hCD300c mAb (clone B47-1D2) (antibody, V domains shown)
VH: QIQLVQSGPELRKPGETVKISCKASGYTFTIYGMNWMKQAPGKGLKWMGWINTYTGEPTYADDFKGRFAFSLETSASTAFLQINNLTNEDTATYFCARSRFAYWGQGTLVTVSA
VL: DIVMTQSQKFMSTSVGDRVSVTCKASQNVGTNVAWYQQKPGQSPKALIYSASYRYSGVPDRFTGSRSGTDFTLTISNVQSEDLAEYVCQQYNSYPLTFGAGTKLELK
notes: Mouse hybridoma mAb; also called anti-CD300c mAb
With B2, the binding result in experiment [6] is recorded as “binds”; in experiment [7] it was “no binding”.

B3: mBTN5-Ig fusion protein (Fc fusion)
chain: QPPVQVLGDAGKVYIAPLRDTANLPCPLFLWPNMVLSEMRWYRPGHLPRTQAVHVFRDGQDRDEDLMPEYKGRTALVRDAHKESYILQISNVRLEDRGLYQCQVWVGNS
modifications: biotinylated with sulfo-NHS-LC-Biotin (sites not given)
notes: Made in HEK-293 cells; not shown: constant region of mouse IgG2a from the pCMV6-AC-FC-S expression vector (ORIGENE)
On to B3, for which the binding result in [8], in [9], in [10], in [11] and in [12] was “no binding” each time.

B4: anti-hTAPBPL mAb (clone 54) (antibody, V domains shown)
VH: DVQLQESGPGLVKPSQTLSLTCSVTGYSLTSGYFWHWIRQFPGNKLEWMGYISYSGTTNYNPSLKNRISITHDSSKNQFFLNLNSVTAEDTATYFCAGDDWDWFAYWGQGTLVTVSA
VL: ENVLTQSPAIMSASPGEKVTMTCSASSSVNYMHWYQQKSSTSPKLWIYDTSKLASGVPGRFSGSGSGNSYSLTISSMEAEDVATYYCFQGSGYPLTFGSGTKLEIK
notes: Mouse hybridoma mAb; also called anti-TAPBPL mAb
With B4, the binding result in experiment [7] was “no binding”.
